Four molecules from patent publication US20240173424A1, “ANTI-NECTIN-4-ANTIBODY EXATECAN CONJUGATES” (EMERGENCE THERAPEUTICS AG, priority 2021, published 2024) can be followed below.

One assay concerns SUM190PT cells. The assay can be described thus: SUM190PT orthotopic xenograft in NSG mice. The format is in vivo, mouse. Conditions: SUM190 grafted NSG mice, single intravenous injection, 4 or 8 mg/kg.
Assay [1] has as its target T1, Nectin-4 expressed by tumors and Nectin-4 expressed by human keratinocytes (Homo sapiens, UniProt Q96NY8).
T1 construct: Cells or cell lines (10,000-50,000) expressing Nectin-4 (naturally or transfected); endogenous in cells; host or cells: SUM190/SUM190PT (also SUM149 in IHC), NHEK differentiated with 0.1 mM CaCl2, human skin sections
T1 sequence (Q96NY8 32-510): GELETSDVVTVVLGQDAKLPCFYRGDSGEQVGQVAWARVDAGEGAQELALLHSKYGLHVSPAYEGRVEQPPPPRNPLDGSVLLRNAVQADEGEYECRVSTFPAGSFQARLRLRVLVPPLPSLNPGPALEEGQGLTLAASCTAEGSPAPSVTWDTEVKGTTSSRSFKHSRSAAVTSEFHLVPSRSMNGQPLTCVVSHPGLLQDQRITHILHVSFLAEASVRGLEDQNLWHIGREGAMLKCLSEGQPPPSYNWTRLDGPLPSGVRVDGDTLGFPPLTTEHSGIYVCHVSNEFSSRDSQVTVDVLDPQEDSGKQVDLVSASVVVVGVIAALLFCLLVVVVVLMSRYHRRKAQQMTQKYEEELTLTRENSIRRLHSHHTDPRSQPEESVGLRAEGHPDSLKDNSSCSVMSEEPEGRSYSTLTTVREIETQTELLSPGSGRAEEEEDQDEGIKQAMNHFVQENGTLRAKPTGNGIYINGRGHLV
Briefly: Differential binding to tumor cells and human keratinocytes. Conditions: in vitro differentiated Nectin-4 expressing keratinocytes. An excerpt: FIG. 6: Differential binding to Nectin-4 expressed by tumor cell line and normal differentiated human keratinocytes. […] Cells were then stained with phycoerythrin conjugate goat anti human Fc antibody. Normalized mean fluorescence intensities are shown. Non-linear curve fitting (4 parameters) was done with GraphPad Prism 9 software. Horizontal bar is placed at 50% of maximum staining intensity obtained with HA22 antibody on SUM190 cells.
FIG. 7: Differential binding to Nectin-4 expressed by tumor cell line and normal differentiated human keratinocytes. Detection by flow cytometry. • Flow cytometry analysis of TNBC cell line (SUM190, A) and normal differentiated (0.1 mM CaCl2) human keratinocytes (NHEK, B) using 5 μg/mL of HA22 (Enfortumab), Ch-5A12.2, Ch-15A7.5, and Ch-8F06. Cells were then stained with phycoerythrin conjugate goat anti human Fc antibody. Normalized mean fluorescence intensities are shown.
FIG. 8: Differential binding to Nectin-4 expressed by tumor cell line and human keratinocytes. Detection by immuno-histochemistry. Cryo-preserved OCT-embedded blocks of high expressing levels of Nectin-4 tumor cell line (SUM190), low expressing levels of Nectin-4 tumor cell line (SUM149), human and cynomolgus skin were processed for staining with 15A7.5 mAb (A) and 9A2.7 mAb (B). Quick score reported for each mAb are shown (A, B). C, ratio of quick score SUM190 over human skin. […]
Remaining blocks were stored at −80° C. until further use. […] Several dilution of each mAb were tested to optimize noise to signal ratio and 0.5 μg/ml of mouse 15A7.5 mAb and 10 µg/mL of mouse 9A2.7 mAb were determined as optimal. […] Both the stained cells proportion and the staining intensity were evaluated for each field. […] Scoring procedure was as follows: (i) The proportion of cells stained positively was estimated and a score from 0 to 4 was be assigned for each field (0=0-5%; 1=5-25%; 2=25-50%; 3=50-75%; and 4=75-100%); and (ii) The staining intensity was scored as 0, 1, 2, or 3 corresponding to the presence of negative, weak, intermediate, and strong brown staining, respectively. […]

For assay [2], the system named is human Nectin-4. The assay can be described thus: ELISA on coated Nectin-4 Fc fusion proteins (Nec4-VCC, Nec4-V). The format is binding. The note with it: statement in FIG. 3 legend on the competitor mAbs. The method, then:
Detection by ELISA. • Ninety-six-wells plates were coated, as indicated, with 5 μg/mL Nectin-1 extracellular domain Fc fusion recombinant protein (Nec1-VCC), or Nectin-4 IgV-like domain Fc fusion recombinant protein (Nec4-V), or Nectin-4 extracellular domain Fc fusion recombinant protein (Nec4-VCC) overnight at 4° ° C.
FIG. 3: Characterization of Ch-15A7.5 epitope. Competition assay was performed by ELISA. • Ninety-six-wells plates were coated with 5 μg/mL of Nectin-4 extracellular domain Fc fusion recombinant protein (Nec4-VCC) overnight at 4° C. Binding of peroxidase-conjugated Ch-15A7.5 mAb (5 μg/mL) was measured in presence of increasing concentrations (2.75 ng/ml-6 μg/mL) of Rituximab, Ch-15A7 mAb, Enfortumab (HA22), Ch-N41 mAb and Ch-14A5 mAb.
A sandwich enzyme-linked immunosorbent assay was used to control specificity of Ch-15A7.5 antibody and to perform competition assays between different mAbs. Ninety-six-wells plates were coated with 10 nM of Nectin-4-VCC-Fc, Nectin-1-VCC-Fc (entire extracellular part) or Nectin-4-V-Fc (comprising only the IgV domain) overnight at +4° C. After washes and saturation with PBS 1% BSA, cells were incubated for 2 hours at 25° C. with 10 nM of peroxidase-conjugated Ch-15A7.5 mAb. In the case of competition, binding of 0.5 nM of peroxidase conjugated Ch-15A7.5 mAb was measured in the presence of variable concentration (0.018 nM to 40 nM) of “cold” mAb. One hundred μL of peroxidase substrate was added (One Step ABST, Pierce), and OD was red at 405 nm.
For orientation: An ELISA detects its analyte on a solid surface through an enzyme-linked reagent.

Assay [3] relates to human Nectin-4. The assay can be described thus: Flow cytometry of MDA-MB231 transfected with Flag-tagged Nectin-4. The note with it: MDA-MB231 transfected with Nectin-4, 0.3 ng/ml-5 μg/mL. The format is binding. The method, then: Detection by flow cytometry. • Flow cytometry analysis of MDA-MB231 transfected with the N-terminal Flag-tagged epitope of Nectin-4 using a dose range (0.3 ng/ml-5 μg/mL) of Ch-15A7.5 or Ch-5A12.2 antibodies Parental MDA-MB231 cells are included as controls. Cells were then stained with phycoerythrin conjugate goat anti human Fc antibody. The normalized mean fluorescence intensity is shown. Inlay: staining of parental MDA-MB231 cells with anti Nectin-1, -2 and -3 mAbs ([…]). Mean fluorescence intensity is represented.
Human breast carcinoma cell line MDA-MB231 (ATCC, Manassas, VA) was cultured in DMEM supplemented with 10% fetal bovine serum, 50 IU/mL penicillin, 50 μg/mL streptomycin and 2 mM glutamine. The cells were transfected with expression vector p3XFLR4.C1 containing a PVRL4 cDNA. Human triple negative breast cancer cell line SUM190PT (BioIVT, Westbury, NY) was cultures in Ham's F12 medium with 5% fetal bovine serum, 1% non-essential amino acids, 1% Hepes, 1% insulin, 1 μg/mL hydrocortisone, 6.8 ng/ml Triiodo L-tyrosine, 100 IU/mL penicillin, 100 μg/mL streptomycin and 2 mM glutamine. Chinese hamster ovary CHO cell line was cultured in DMEM supplemented with 10% fetal bovine serum, 100 IU/mL penicillin, 100 μg/mL streptomycin and 2 mM glutamine. […]
In general terms: In flow cytometry, cells or beads pass a laser one at a time.

Description for SUM190PT cells: Treatment of mice (single intravenous injection) started when tumors reached approximately 150 mm^3. […] Tumor sizes (n=10/group) were monitored with a caliper twice a week thereafter and sizes were reported with the following formula (LxlxhxPi/6).
NOD/SCID (nonobese diabetic/severe combined immunodeficient)/gc null mice (NSG) were obtained from Charles River Laboratory (Margate, UK). Six to seven-weeks old females (n=5/group) were orthotopically xenografted bilaterally with the SUM190PT (0.5×10^6) cells embedded in Matrigel. Treatment with ADC was performed as mentioned in the respective experiments. Tumor sizes (n=10/group) were monitored with a caliper twice a week thereafter and sizes were reported with the following formula (LxlxhxPi/6).

B1: HA22-MC-GGFG-DX8951 (conjugate, chains of the INN, looked up)
VH: EVQLVESGGGLVKPGGSLKLSCAASGFAFSIYDMSWVRQTPEKCLEWVAYISSGGGTTYYPDTVKGRFTISRDNAKNTLYLQMSSLKSEDTAMYYCARHSGYGTHWGVLFAYWGQGTLVTVSA
VL: DIQMTQTTSSLSASLGDRVTISCRASQDISNYLNWYQQKPDGTVKLLIYYTSILHSGVPSRFSGSGSGTDYSLTISNLEQEDFATYFCQQGNTLPWTFGCGTKLEI
modifications: MC-GGFG-DX8951 (exatecan) payload
Turning to B1, the tumor regression entry in the assay with SUM190PT cells was “induces a long-lasting tumor regression period”.

B2: mAb 3A1.4: monoclonal anti-Nectin-4 antibody characterized by SEQ ID NO:s 96-103 (antibody, V domains shown)
VH: DVQLQESGPSLVKPSQTLSLTCSVTGDSITSGYWNWIRKFPGNKLEYMGYISNSGITYYNPSLKSRISITRDTSKNQYFLQLNSVTAEDTATYYCTRFGSTMILYYTMDYWGQGTSVTVSS
VL: DIVMTQSPVTLSVTPGDRVSLSCRASQSISDYLHWYQQKSQESPRLLIKYASKSISGIPSRFSGSGSGSNFTLSINSVEPEDVGVYYCQNGHSFPLTFGAGTKLELK
modifications: VH_3A1.4; VK_3A1.4
In the case of B2, in assay [1], the “affinity to Nectin-4 expressed by tumors in comparison to Nectin-4 expressed by human keratinocytes” value is “higher affinity”.

B3: HA22: human monoclonal anti-Nectin-4 antibody described in WO2012/047724, antibody of Enfortumab vedotin (antibody, V domains shown)
VH: EVQLVESGGGLVQPGGSLRLSCAASGFTFSSYNMNWVRQAPGKGLEWVSYISSSSSTIYYADSVKGRFTISRDNAKNSLSLQMNSLRDEDTAVYYCARAYYYGMDVWGQGTTVTVSS
VL: DIQMTQSPSSVSASVGDRVTITCRASQGISGWLAWYQQKPGKAPKFLIYAASTLQSGVPSRFSGSGSGTDFTLTISSLQPEDFATYYCQQANSFPPTFGGGTKVEIK
Take B3: in the assay with human Nectin-4 [2], the “recognition of the IgV domain of Nectin-4” value is recorded as “recognize the IgV domain of Nectin-4”.

B4: Ch-5A12.2: chimeric antibody of 5A12.2 (antibody, V domains shown)
VH: QIQLQQSGAELVKPGASVTLSCKTSGFTFNSMYISWLKQKPGQSLEWIAWIYAGTGGTRFNQKFTGKVQLTVDTSSSTAYMQFSSLTTDDSAIYYCAIRSGFVPMDYWGQGTSVTVSS
VL: SIVMTQTPKFLLVSAGDRVTITCKASQSVSNDVAWYQQKPGQSPKLLIYYASNRYTGVPDRFTGSGYGTDFTFTISTVQAEDLAVYFCQQDYSSPWTFGGGTKLEIK
B4: the “recognition of human Nectin-4” value with human Nectin-4 [3] is given as “recognize human Nectin-4”.
